Source: doi:10.1101/2022.09.05.506423 (bioRxiv, 2022)

T1: fibrinogen Bβ chain (human) (human, UniProt P02675 31-491, N-linked glycan at N364)
T1 sequence (looked up): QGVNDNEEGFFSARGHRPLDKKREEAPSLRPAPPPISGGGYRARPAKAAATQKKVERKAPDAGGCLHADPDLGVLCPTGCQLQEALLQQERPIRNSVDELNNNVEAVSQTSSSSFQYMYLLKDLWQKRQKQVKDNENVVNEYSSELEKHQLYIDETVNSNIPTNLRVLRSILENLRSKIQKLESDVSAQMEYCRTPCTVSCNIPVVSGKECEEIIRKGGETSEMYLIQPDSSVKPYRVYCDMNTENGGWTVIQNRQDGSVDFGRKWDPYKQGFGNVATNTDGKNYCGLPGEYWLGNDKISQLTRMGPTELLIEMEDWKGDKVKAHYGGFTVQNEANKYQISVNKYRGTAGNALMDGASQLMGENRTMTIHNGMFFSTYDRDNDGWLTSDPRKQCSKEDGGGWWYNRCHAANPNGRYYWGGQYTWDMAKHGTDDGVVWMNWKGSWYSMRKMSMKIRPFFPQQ


Key:
[1] = target: AαBβγ half-molecule of human fibrinogen (human) (UniProt P02671); assay: SEC
[2] = target: T1, fibrinogen Bβ chain (human); assay: SEC

Molecule | stoichiometry N [1] | binding result [2]
AαBβγ half-molecule of human fibrinogen (from UniProt P02671-2 20-644; P02675 31-491; P02679-2 27-437) (complex) | 2 | –
fibrinogen γ chain, γ-A isoform (human) (natural protein, UniProt P02679-2 27-437, looked up, N-linked glycan at N52) YVATRDNCCILDERFGSYCPTTCGIADFLSTYQTKVDKDLQSLEDILHQVENKTSEVKQLIKAIQLTYNPDESSKPNMIDAATLKSRKMLEEIMKYEASILTHDSSIRYLQEIYNSNNQKIVNLKEKVAQLEAQCQEPCKDTVQIHDITGKDCQDIANKGAKQSGLYFIKPLKANQQFLVYCEIDGSGNGWTVFQKRLDGSVDFKKNWIQYKEGFGHLSPTGTTEFWLGNEKIHLISTQSAIPYALRVELEDWNGRTSTADYAMFKVGPEADKYRLTYAYFAGGDAGDAFDGFDFGDDPSDKFFTSHNGMQFSTWDNDNDKFEGNCAEQDGSGWWMNKCHAGHLNGVYYQGGTYSKASTPNGYDNGIIWATWKTRWYSMKKTTMKIIPFNRLTIGEGQQHHLGGAKQAGDV | – | binds
